Article PMC8207774, “NtbHLH1, a JAF13-like bHLH, interacts with NtMYB6 to enhance proanthocyanidin accumulation in Chinese Narcissus” (BMC Plant Biology, 2021)

Target: T1, NtbHLH1 (Chinese narcissus (Narcissus tazetta L. …, UniProt A0A517FM44 1-631))
T1 sequence (looked up): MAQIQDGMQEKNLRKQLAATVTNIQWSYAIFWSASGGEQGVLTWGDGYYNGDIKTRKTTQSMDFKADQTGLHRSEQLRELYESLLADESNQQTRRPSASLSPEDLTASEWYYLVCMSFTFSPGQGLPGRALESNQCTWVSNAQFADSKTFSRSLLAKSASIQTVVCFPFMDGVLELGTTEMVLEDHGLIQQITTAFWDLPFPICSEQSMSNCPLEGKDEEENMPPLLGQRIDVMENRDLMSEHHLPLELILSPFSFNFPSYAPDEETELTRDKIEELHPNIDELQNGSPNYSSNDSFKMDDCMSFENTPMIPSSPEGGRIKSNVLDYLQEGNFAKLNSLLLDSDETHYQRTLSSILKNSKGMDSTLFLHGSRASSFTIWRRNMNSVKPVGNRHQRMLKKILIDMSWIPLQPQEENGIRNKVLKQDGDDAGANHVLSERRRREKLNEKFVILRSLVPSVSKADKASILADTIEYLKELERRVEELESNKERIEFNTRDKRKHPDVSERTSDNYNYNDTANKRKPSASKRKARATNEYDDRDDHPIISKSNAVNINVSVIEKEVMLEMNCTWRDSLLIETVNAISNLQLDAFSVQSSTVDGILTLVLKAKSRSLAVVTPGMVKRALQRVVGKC
Test: cell-based or functional assay

NtDFR promoter activity, dual luciferase assay in N. benthamiana leaves, co-infiltration of NtbHLH1 and NtMYB6 compared to NtMYB6 alone: ~8 fold
NtDFR promoter activity, dual luciferase assay in N. benthamiana leaves, co-infiltration of NtbHLH1 and NtMYB6 compared to the control: ~14 fold
B1: NtMYB6 (natural protein, UniProt A0A1U9X216 1-249, looked up)
chain: MGRAPCCSKVGLHRGPWTAREDALLTNYIQCHGEGNWRSLPKNAGLLRCGKSCRLRWMNYLRPDIKRGNIGPEEEDLIIRLHSLLGNRWSIIAGRLPGRTDNEIKNYWNSHLSKKLKKQGIQVRGNLSSKQSKSSKMNNNDNNNNLEKRKNIKETPKIKIHAPKPTRFTRTISQSSSSCQANNVENVTSEDERCDIPWTNAESQDDIFAPGSWNYELFDIDRVYQEYSQLLNGEDDQFPMASFTESVFA
